The record followed here is patent publication US20240174733A1 (ACCELERON PHARMA, published 2024).

Assay [1] deals with T1, ActRIIA-mFc (human, UniProt P27037 21-135).
T1 construct: also called RAP-011; sotatercept analog RAP-011; not shown: "minimal linker"; mouse Fc domain
The experiment in a line: similar binding assay (Biacore).

Assay [2] addresses T1, ActRIIA-mFc. Kind of assay: SPR (Biacore), ligand amine-coupled on CM5 chip, ActRIIA-mFc as analyte. As for the experimental part:
GDF11 or activin A were immobilized on a Biacore™ CM5 chip using standard amine-coupling procedure. ActRIIA-hFc and ActRIIA-mFc proteins were loaded onto the system, and binding was measured. […] Using a similar binding assay, ActRIIA-hFc was determined to have high to moderate affinity for other TGF-beta superfamily ligands including, for example, activin B, GDF8, BMP6, and BMP10. ActRIIA-mFc behaved similarly.

T1 sequence (P27037 21-135): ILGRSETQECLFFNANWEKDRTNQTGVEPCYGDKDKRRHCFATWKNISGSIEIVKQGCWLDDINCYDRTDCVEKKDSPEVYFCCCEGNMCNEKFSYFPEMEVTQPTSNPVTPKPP

B1: BMP10 (ligand, UniProt O95393 317-424, looked up)
chain: NAKGNYCKRTPLYIDFKEIGWDSWIIAPPGYEAYECRGVCNYPLAEHLTPTKHAIIQALVHLKNSQKASKACCVPTKLEPISILYLDKGVVTYKFKYEGMAVSECGCR
For B1, the binding result with ActRIIA-mFc [1] is “binds”.

B2: GDF11 (ligand, UniProt O95390 299-407, looked up)
chain: NLGLDCDEHSSESRCCRYPLTVDFEAFGWDWIIAPKRYKANYCSGQCEYMFMQKYPHTHLVQQANPRGSAGPCCTPTKMSPINMLYFNDKQQIIYGKIPGMVVDRCGCS
notes: Immobilized on a Biacore CM5 chip by amine coupling
B2: in the assay with ActRIIA-mFc [2], the binding result is “binds”.
